# Measured values published in US9566335 (GOVERNING COUNCIL OF THE UNIVERSITY OF TORONTO, dated 2017).
# Where a chain is given by its changes, count along the chain named. No end group written: not given here. *: point of attachment. Biotin = O=C1N[C@H]2[C@H](CS[C@H]2CCCCC(=O)*)N1
# B1: biotinylated peptide X-SDGMFTAGSLIGK(biotin), X = L (peptide)
# peptide: LSDGMFTAGSLIGK(Biotin)
# notes: also called Leu peptide
# B2: ClpS Variant 1 (Trp-binding ClpS variant), phage displayed (designed binder)
# chain: KPPSMYKVILVNDDYTPAEFCIDVLQKFFSYDVERATQLCLAAHYQGKAICGVFTAEVAETKVAMVNKYARENEHAALCTLEKA
# notes: tested as phage; also called ClpS variant W1; W1; not shown: N-terminal FLAG tag of the phage display construct; C-terminal phage coat protein p3 of the phage display construct
# B3: Phage displayed wild-type E. coli ClpS (truncated wildtype ClpS polypeptide, FLAG-tagged, fused to phage coat protein p3) (other)
# chain: B2 chain with A18M, C21V, C40M, A43V, A76P, A77L
# notes: also called ClpS Wt; ClpS WT; not shown: N-terminal FLAG tag
# Target: B2
# Assay: competitive phage ELISA against immobilised Wpep
row,Binder,binding result
1,"ASDGMFTAGSLI [non-biotinylated peptide XSDGMFTAGSLI, X = A]",no binding (tested: 10 uM)
2,"NSDGMFTAGSLI [non-biotinylated peptide XSDGMFTAGSLI, X = N]",no binding (tested: 10 uM)
3,"QSDGMFTAGSLI [non-biotinylated peptide XSDGMFTAGSLI, X = Q]",no binding (tested: 10 uM)
4,"TSDGMFTAGSLI [non-biotinylated peptide XSDGMFTAGSLI, X = T]",no binding (tested: 10 uM)
5,"DSDGMFTAGSLI [non-biotinylated peptide XSDGMFTAGSLI, X = D]",no binding (tested: 10 uM)
6,"RSDGMFTAGSLI [non-biotinylated peptide XSDGMFTAGSLI, X = R]",no binding (tested: 10 uM)
7,"ESDGMFTAGSLI [non-biotinylated peptide XSDGMFTAGSLI, X = E]",no binding (tested: 10 uM)
8,"HSDGMFTAGSLI [non-biotinylated peptide XSDGMFTAGSLI, X = H]",no binding (tested: 10 uM)
9,"CSDGMFTAGSLI [non-biotinylated peptide XSDGMFTAGSLI, X = C]",no binding (tested: 10 uM)
10,"SSDGMFTAGSLI [non-biotinylated peptide XSDGMFTAGSLI, X = S]",no binding (tested: 10 uM)
11,"MSDGMFTAGSLI [non-biotinylated peptide XSDGMFTAGSLI, X = M]",no binding (tested: 10 uM)
12,"PSDGMFTAGSLI [non-biotinylated peptide XSDGMFTAGSLI, X = P]",no binding (tested: 10 uM)
13,"VSDGMFTAGSLI [non-biotinylated peptide XSDGMFTAGSLI, X = V]",no binding (tested: 10 uM)
14,"KSDGMFTAGSLI [non-biotinylated peptide XSDGMFTAGSLI, X = K]",no binding (tested: 10 uM)

# Target: B3
# Assay: phage ELISA
row,Binder,binding result
1,B1,binds
2,"WSDGMFTAGSLIGK(Biotin) (also called Wpep; Trp peptide) [biotinylated peptide X-SDGMFTAGSLIGK(biotin), X = W]",binds

# Target: B1
# Assay: phage ELISA
row,Binder,binding result
1,B2,no binding

# Target: B2
# Assay: competitive phage ELISA, 10 uM free peptide against immobilised Wpep
row,Binder,binding result
1,"FSDGMFTAGSLI [non-biotinylated peptide XSDGMFTAGSLI, X = F]",binds
2,"LSDGMFTAGSLI [non-biotinylated peptide XSDGMFTAGSLI, X = L]",binds
3,"GSDGMFTAGSLI [non-biotinylated peptide XSDGMFTAGSLI, X = G]",binds
4,"YSDGMFTAGSLI [non-biotinylated peptide XSDGMFTAGSLI, X = Y]",binds
5,"ISDGMFTAGSLI [non-biotinylated peptide XSDGMFTAGSLI, X = I]",binds

# Target: T1, streptavidin (UniProt P22629 37-163)
# T1 construct: also called SA
# Assay: phage ELISA, FIG. 6B
# T1 sequence (P22629 37-163 limits assumed): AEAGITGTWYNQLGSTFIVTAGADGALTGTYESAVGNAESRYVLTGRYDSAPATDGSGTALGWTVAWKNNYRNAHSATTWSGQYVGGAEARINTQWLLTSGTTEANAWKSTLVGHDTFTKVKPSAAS
row,Binder,binding result
1,B3,no binding

# Target: T2, bovine serum albumin (bovine, UniProt P02769 25-607)
# T2 construct: also called BSA
# Assay: phage ELISA, FIG. 6B
# T2 sequence (P02769 25-607 limits assumed): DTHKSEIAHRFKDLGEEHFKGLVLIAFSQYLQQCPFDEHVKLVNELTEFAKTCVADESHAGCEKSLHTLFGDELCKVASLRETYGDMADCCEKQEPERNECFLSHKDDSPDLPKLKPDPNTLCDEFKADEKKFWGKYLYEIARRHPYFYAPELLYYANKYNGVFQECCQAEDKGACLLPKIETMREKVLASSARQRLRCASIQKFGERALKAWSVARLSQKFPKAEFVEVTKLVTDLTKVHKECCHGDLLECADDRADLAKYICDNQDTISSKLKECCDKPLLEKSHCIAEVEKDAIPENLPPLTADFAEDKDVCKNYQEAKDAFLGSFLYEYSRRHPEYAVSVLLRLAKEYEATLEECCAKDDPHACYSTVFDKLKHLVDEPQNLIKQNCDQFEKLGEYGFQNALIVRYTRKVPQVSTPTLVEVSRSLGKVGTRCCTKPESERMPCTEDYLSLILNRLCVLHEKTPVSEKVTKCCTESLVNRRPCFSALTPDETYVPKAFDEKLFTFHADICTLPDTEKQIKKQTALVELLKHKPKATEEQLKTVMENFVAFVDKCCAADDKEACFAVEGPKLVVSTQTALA
row,Binder,binding result
1,B3,no binding

# Target: B2
# Assay: competitive phage ELISA: W1 phage equilibrated with free peptide, then on immobilised Wpep(biotin)
Binder,IC50 [nM],binding remaining at 10 uM competitor (relative to no competitor) [%]
"WSDGMFTAGSLI (also called Wpep) [non-biotinylated peptide XSDGMFTAGSLI, X = W]",~1000,11
